Assay results from patent US9322042B2, “Thermostable cellulases, and mutants thereof, capable of hydrolyzing cellulose in ionic liquid” (The Regents of the University of California, priority 2009, dated 2016).
Changes are numbered by the printed parent chain. Numbers in names are those of the source.

B1: P2H8: T. maritima Cel5A cellulase mutant with D40N and L231R; SEQ ID NO: 2 (protein, listed as Thermotoga maritima)
chain: MGVDPFERNKILGRGINIGNALEAPNEGDWGVVIKDEFFNIIKEAGFSHVRIPIRWSTHAYAFPPYKIMDRFFKRVDEVINGALKRGLAVVINIHHYEELMNDPEEHKERFLALWKQIADRYKDYPETLFFEILNEPHGNLTPEKWNELLEEALKVIRSIDKKHTIIIGTAEWGGISALEKLSVPKWEKNSIVTIHYYNPFEFTHQGAEWVEGSEKWLGRKWGSPDDQKHRIEEFNFIEEWSKKNKRPIYIGEFGAYRKADLESRIKWTSFVVREMEKRRWSWAYWEFCSGFGVYDTLRKTWNKDLLEALIGGDSIE
B2: P15H11: T. maritima Cel5A cellulase mutant with S177R; SEQ ID NO: 22 (protein, listed as Thermotoga maritima)
chain: B1 chain with N40D, S177R, R231L
B3: P15G2: T. maritima Cel5A cellulase mutant with K35N, E209G and A256T; SEQ ID NO: 8 (protein, listed as Thermotoga maritima)
chain: B1 chain with K35N, N40D, E209G, R231L, A256T
B4: P4B5: T. maritima Cel5A cellulase mutant with K155N; SEQ ID NO: 4 (protein, listed as Thermotoga maritima)
chain: B1 chain with N40D, K155N, R231L
B5: P3D7: T. maritima Cel5A cellulase mutant with E308K; SEQ ID NO: 3 (protein, listed as Thermotoga maritima)
chain: B1 chain with N40D, R231L, E308K
B6: P15B10: T. maritima Cel5A cellulase mutant with D29V and I92F; SEQ ID NO: 7 (protein, listed as Thermotoga maritima)
chain: B1 chain with D29V, N40D, I92F, R231L
B7: P1E3: T. maritima Cel5A cellulase mutant with E98A and E106D; SEQ ID NO: 1 (protein, listed as Thermotoga maritima)
chain: B1 chain with N40D, E98A, E106D, R231L
B8: P13F6: T. maritima Cel5A cellulase mutant with E132D, N140S, E202K and K304N; SEQ ID NO: 6 (protein, listed as Thermotoga maritima)
chain: B1 chain with N40D, E132D, N140S, E202K, R231L, K304N
B9: P8E4: T. maritima Cel5A cellulase mutant with A113V; SEQ ID NO: 5 (protein, listed as Thermotoga maritima)
chain: B1 chain with N40D, A113V, R231L

Test: Beta-1,4-endoglucanase (CMCase) activity assay of Cel5ATm mutants
Type: biochemical
Method: CMCase activity assay is carried out in 50 mM Bis-Tris-HCl buffer (pH 6.5) containing 1% carboxylmethylcellulose (CMC) and incubated at 75° C. for 30 min. Reducing sugars are analyzed by DNS method as described in Xiao Z, Storms R and Tsang A (2005) “Microplate-based carboxymethylcellulose assay for endoglucanase activity”, Anal. Biochem. 342: 176-178. Cellobiose is used as reducing sugars standard. 1 U is defined as enzyme amount to produce 1 μmol reducing sugars in one minute at optimal conditions.
5 μl supernatant is mixed with 35 μl sterile ddH2O and 40 μl 2% CMC in 100 mM Bis-Tris-HCl (pH 6.5) in 96-well PCR plates. These plates are incubated in thermocyclers at 75° C. for 30 min. 80 μl of DNS reagent is added (Ref 1), mixed and incubated at 95° C. for 5 min. The solution is cooled to 4° C. and transferred 100 μl of the products into 96-well plate for reading the ABS at 540 nm.
Clones from the mutant library are analyzed as described for the wild-type of Cel5ATm except that after transferring normal cultures into autoinduction medium, normal culture plates are added by sterile glycerol to 10%, mixed and stored at −80° C. for future investigation. The clones with endoglucanase activity larger than 120% of the wild-type are selected to express the enzymes in 5 ml culture and purified by Ni-NTA columns. Activity improvements are confirmed by detection of their specific activity (U/mg) and plasmids sequencing.

| Molecule | improvement of cellulase activity over the wild-type T. maritima cellulase |
| --- | --- |
| B1 | about 40.56% |
| B2 | about 35.98% |
| B3 | about 66.92% |
| B4 | about 33.02% |
| B5 | about 78.76% |
| B6 | about 33.79% |
| B7 | about 31.77% |
| B8 | about 68.51% |
| B9 | about 49.06% |
